Measured values as given in PMC12157784, “Photoelectrochemical Biosensor Based on 1D In2O3 Tube Decorated with 2D ZnIn2S4 Nanosheets for Sensitive PSA Detection”.

Target: prostate specific antigen (PSA) (UniProt P07288 25-261)
Assay: photoelectrochemical aptasensor (photocurrent decrease); PBS pH 7.4, aptamer immobilised on FTO/In2O3-ZnIn2S4, BSA blocked; linear 0.001-50 ng/mL, LOD 0.00037 ng/mL (not a Kd); PSA incubated 30 min at room temperature on aptamer electrode; 0.01 M PBS pH 7.4 as incubation/wash buffer; photocurrent read in 0.1 M ascorbic acid

Chain of prostate specific antigen (PSA) (P07288 25-261): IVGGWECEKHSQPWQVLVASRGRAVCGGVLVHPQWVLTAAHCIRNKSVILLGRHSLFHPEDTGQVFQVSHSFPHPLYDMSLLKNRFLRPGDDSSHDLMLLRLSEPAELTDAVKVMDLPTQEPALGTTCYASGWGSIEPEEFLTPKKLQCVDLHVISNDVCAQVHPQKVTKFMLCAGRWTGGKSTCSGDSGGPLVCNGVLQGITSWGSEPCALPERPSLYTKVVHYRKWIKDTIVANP

B1: PSA aptamer (ssDNA)
DNA: ATTAAAGCTCGCCATCAAATAGC
modifications: 5'-NH2-(CH2)6
binding result: binds
